B1: Hairpin Ribozyme (parent)
chain: GUCCUCUUUCACGUGCGCGUGAAAGAGAGAAGUGAACCAGAGAAACACACGUUGUGGUAUAUUACCUGGUA

In this series the parent is B1. Briefly: self-cleavage, relative activity (ratio to wild type); higher = more cleavage; co-transcriptional.
G27U G57C: the self-cleavage is 0.159.

Consider G25U G69A, for which the self-cleavage came to 0.261.

On to A28C G51A, for which the self-cleavage is 0.517.

On to A28C G51C, for which the self-cleavage was 0.336.

Regarding A26G G56A, the self-cleavage came to 0.271.

As to G27U A47C, the self-cleavage was 0.157.

As to G27U A47G, the self-cleavage came to 0.222.

A26G U62A: the self-cleavage was 0.228.

Regarding A26G U62G, the self-cleavage came to 0.0228.

Take A26G U62C: the self-cleavage worked out at 0.277.

Take A26U G68A: the self-cleavage amounted to 0.23.

For A28C A45U, the self-cleavage came out at 0.134.

Take A28C A45G: the self-cleavage came to 0.201.

As for A26C U70A, the self-cleavage turned out to be 0.63.

As to A26U U55A, the self-cleavage was 0.082.

For the variant A26C C46A, the self-cleavage came to 0.175.

Take G27U G56A: the self-cleavage came out at 0.0845.

Regarding G27U G56U, the self-cleavage is 0.108.

Turning to G27C U67A, the self-cleavage is 0.104.

Turning to A26C G34A, the self-cleavage is 0.906.

Turning to A26C G32A, the self-cleavage is 0.0538.

With A26C G32C, the self-cleavage is 0.175.

For A26G U58C, the self-cleavage was 1.02.

G27A A61C: the self-cleavage worked out at 0.107.

G25U U63A: the self-cleavage came out at 0.184.

Turning to A26C U52C, the self-cleavage is 0.811.

Turning to A26C A30C, the self-cleavage came out at 0.25.

Consider A26U G29A, for which the self-cleavage was 0.198.

Regarding G27U A59G, the self-cleavage was found to be 0.209.

As for G27U A59C, the self-cleavage was found to be 0.0836.

Regarding G27U G51A, the self-cleavage is 0.307.

Consider A26C G69C, for which the self-cleavage came out at 0.212.

As to A26C G69U, the self-cleavage was found to be 0.108.

In the case of A26G A35C, the self-cleavage amounted to 0.799.

With A26G A35G, the self-cleavage was found to be 0.763.

Turning to A26G A35U, the self-cleavage came out at 0.523.

Turning to A26U C65G, the self-cleavage turned out to be 0.111.

Turning to G27A A36U, the self-cleavage was 0.198.

For G27A C66U, the self-cleavage amounted to 0.13.

Turning to A28C G32C, the self-cleavage amounted to 0.121.

As to A28C G32U, the self-cleavage came to 0.0817.

With A28C A31U, the self-cleavage came to 0.107.

Consider A28C A31G, for which the self-cleavage was found to be 0.333.

On to G27A U52A, for which the self-cleavage stood at 0.337.

Turning to G27U A61C, the self-cleavage was found to be 0.149.

Turning to G27C A64U, the self-cleavage amounted to 0.184.

As for G27C A64C, the self-cleavage stood at 0.128.

As for A28C U60A, the self-cleavage turned out to be 0.448.

Consider A26U G56A, for which the self-cleavage stood at 0.129.

For A26U G56U, the self-cleavage worked out at 0.279.

Regarding A26U A36G, the self-cleavage is 0.723.

Consider A26G C48U, for which the self-cleavage stood at 0.18.

On to A26G C48G, for which the self-cleavage was determined as 0.14.

Consider G27A A47U, for which the self-cleavage amounted to 0.111.

For G27A A59G, the self-cleavage stood at 0.191.

Turning to G27A A59C, the self-cleavage came out at 0.103.

For the variant G27A A59U, the self-cleavage amounted to 0.185.

On to A26C C50G, for which the self-cleavage was 0.174.

As to G27U U60C, the self-cleavage worked out at 0.383.

With G27U G34U, the self-cleavage stood at 1.15.

With G27U G34A, the self-cleavage came to 0.282.

A26C G51U: the self-cleavage is 0.919.

For A26C G51C, the self-cleavage was found to be 0.714.

Regarding G27U C65A, the self-cleavage is 0.184.

A26C U63A: the self-cleavage came out at 0.175.

With G25U U52A, the self-cleavage came out at 0.55.

For G27A G57A, the self-cleavage turned out to be 0.145.

On to G27A U70A, for which the self-cleavage was determined as 0.426.

In the case of G27A U70C, the self-cleavage was determined as 0.391.

As for G27C U63G, the self-cleavage was 0.101.

On to A26U A28G, for which the self-cleavage worked out at 1.

For A28C G34C, the self-cleavage is 1.5.

For G27U C46G, the self-cleavage is 0.0944.

Regarding G27U C46A, the self-cleavage worked out at 0.13.

As to A26C A47G, the self-cleavage is 0.187.

As to A26C A47U, the self-cleavage stood at 0.0646.

A26U A64U: the self-cleavage was found to be 0.175.

With A26U A59U, the self-cleavage came to 0.108.

Consider A28C C37U, for which the self-cleavage was determined as 0.396.

As for A26C C48G, the self-cleavage was 0.138.

For the variant A26G U60A, the self-cleavage came out at 0.763.

As to A26G U60C, the self-cleavage was 0.963.

Take A26C A36C: the self-cleavage came out at 0.488.

On to G27A C50A, for which the self-cleavage was found to be 0.104.

Regarding A26C U62G, the self-cleavage is 0.0946.

Turning to G27C U60G, the self-cleavage turned out to be 0.0405.

Turning to A26G A30C, the self-cleavage was 0.0939.

Consider A26G A30G, for which the self-cleavage was 0.0496.

As for A26C C38A, the self-cleavage was 0.163.

For the variant A26C C38G, the self-cleavage came out at 0.182.

As for A26C C38U, the self-cleavage was 0.416.

Take A26C A44C: the self-cleavage stood at 0.0715.

On to A26C A44G, for which the self-cleavage came out at 0.124.

Take A26U A47C: the self-cleavage was determined as 0.151.

As for A26U A61G, the self-cleavage worked out at 0.187.

Consider A26U A61C, for which the self-cleavage is 0.226.

For the variant A26C A71U, the self-cleavage came out at 0.567.

For A28C U53G, the self-cleavage was 0.213.

Turning to A28C U53A, the self-cleavage came out at 0.39.

As to A26U U67G, the self-cleavage is 0.2.

For G27A U33A, the self-cleavage was found to be 0.0964.

G27U C37A: the self-cleavage was 0.108.

In the case of G27C U70G, the self-cleavage was 0.122.

Regarding A26U G32A, the self-cleavage was 0.154.

In the case of A26U G32C, the self-cleavage turned out to be 0.128.

As to A28C A43C, the self-cleavage is 0.125.

For A28C A43U, the self-cleavage is 0.148.

G27C A61G: the self-cleavage stood at 0.237.

With G27C A61C, the self-cleavage stood at 0.0843.

As to G27C A44C, the self-cleavage stood at 0.0898.

In the case of A28C C46A, the self-cleavage is 0.191.

In the case of A28C C46U, the self-cleavage came out at 0.151.

In the case of A28C C46G, the self-cleavage is 0.0967.

Take G27A A43C: the self-cleavage is 0.0674.

As for A28G A31G, the self-cleavage turned out to be 0.416.

As to G27C A28U, the self-cleavage is 0.138.

Consider G27C A28C, for which the self-cleavage turned out to be 0.164.

For the variant G27C A28G, the self-cleavage worked out at 0.128.

Regarding G27A G42A, the self-cleavage was 0.153.

For G25U G68A, the self-cleavage turned out to be 0.183.

As for G27A C46A, the self-cleavage turned out to be 0.103.

With G27A C46G, the self-cleavage amounted to 0.138.

Take G27C U58A: the self-cleavage came to 0.123.

Take G27C U58G: the self-cleavage stood at 0.188.

As for A26G G32C, the self-cleavage came to 0.144.

With A26G G32U, the self-cleavage came out at 0.121.

Consider A26C U55C, for which the self-cleavage is 0.211.

A26U U53C: the self-cleavage amounted to 0.599.

For A28C A39U, the self-cleavage worked out at 0.127.

As to A28C A39C, the self-cleavage was found to be 0.238.

With A26G U67G, the self-cleavage was 0.281.

On to G27C A45C, for which the self-cleavage was 0.11.

As to A26U A31C, the self-cleavage stood at 0.171.

Turning to A26U U33G, the self-cleavage turned out to be 0.107.

With G27C A49C, the self-cleavage amounted to 0.203.

Consider G27C A49G, for which the self-cleavage was found to be 0.075.

Regarding G27C C37U, the self-cleavage was determined as 0.0764.

On to G27C C37G, for which the self-cleavage was determined as 0.239.

On to A28C U63C, for which the self-cleavage came to 0.251.

For A28C U63G, the self-cleavage is 0.176.

As for A26U G34U, the self-cleavage came to 1.37.

As to G27A C38G, the self-cleavage is 0.0969.

Regarding G27A U63C, the self-cleavage stood at 0.236.

As to G27A U63A, the self-cleavage is 0.103.

As for G27A U63G, the self-cleavage is 0.134.

G27C C50A: the self-cleavage is 0.242.

For the variant A26G A39G, the self-cleavage is 0.379.

For G27U G42A, the self-cleavage came to 0.149.

Turning to G27U G42C, the self-cleavage came to 0.0625.

For the variant A28C C66G, the self-cleavage was determined as 0.197.

Take A28C C66U: the self-cleavage was 0.227.

G27C A47U: the self-cleavage is 0.0683.

As to G27U G68C, the self-cleavage came out at 0.102.

Consider G27U G68U, for which the self-cleavage turned out to be 0.157.

G27C U62G: the self-cleavage came out at 0.161.

As to G27C U62C, the self-cleavage was 0.12.

G27A U55G: the self-cleavage came out at 0.144.

As to G27A U55C, the self-cleavage was 0.211.

In the case of A26G A31G, the self-cleavage stood at 0.884.

As to A26G C50U, the self-cleavage came to 0.347.

As to A26C U53G, the self-cleavage was found to be 0.883.

For A28C G29U, the self-cleavage stood at 0.0915.

Regarding A28C G29C, the self-cleavage was found to be 0.204.

On to A26G G34A, for which the self-cleavage was 1.19.

For the variant A26G G34U, the self-cleavage was found to be 1.37.

As to G27A A30U, the self-cleavage was determined as 0.0812.

For G27U G40U, the self-cleavage came to 0.0783.

The record behind these values is the RNAGym collection of RNA variant scans (doi:10.7554/elife.80360).
